One assay relates to hepatoma cell line HepG2. Description: Survival of hepatoma cell line HepG2 in serum-free culture (viable cell count after 3 days). It counts as cell-based. Particulars: for Survival rate: HepG2, DMEM without fetal bovine serum; for Effect in controlling cell death (in words): HepG2, serum-free medium. On the procedure: Two mL cell suspension of hepatoma cell line HepG2 dispersed in trypsin (5×10^5 cells) were inoculated on six multi-well plates and pre-culture by using Dulbecco's modified Eagle medium (DMEM) containing 5% fetal bovine serum, 1.6 g/L sodium hydrogencarbonate, 0.584 g/L L-glutamine, and 0.08 g/L kanamycin sulfate at 37° C. in a 5% CO2 gas phase. […] The viable cell count was assayed after 3 days of culture.
The hepatoma cell line HepG2 was pre-cultured in the same manner as in Example 1. After 1 day, the broth was recovered, the cell surfaces were washed with serum-free medium, and the culture was continued for another 3 days with the addition of medium containing 5%, 0% fetal bovine serum, or 2 mL of fresh medium comprising antithrombin III added in concentrations ranging from 1 to 25 μg/mL to media containing no fetal bovine serum (0%). The viable cell count was assayed after 3 days of culture.
The hepatoma cell line HepG2 was pre-cultured in the same manner as in Example 1. After 1 day, the broth was recovered, the cell surfaces were washed with serum-free medium, and the culture was continued for another 3 days with the addition of medium containing 5%, 0% fetal bovine serum, or 2 mL of fresh medium comprising antithrombin III or any of-various synthetic protease inhibitors given in Table 4 added to media containing no fetal bovine serum (0%). The viable cell count was assayed after 3 days of culture.

The next assay relates to osteoblast cell line ROS. Description: Survival of osteoblast cell line ROS in serum-free culture (viable cell count after 3 days). The assay is classed as cell-based. The conditions noted are these: ROS osteoblasts. On the procedure:
Two mL cell suspension of osteoblast cell line ROS dispersed in trypsin (5×10^5 cells) were inoculated on six multi-well plates and pre-cultured by using Dulbecco's modified Eagle medium (DMEM) containing 10% fetal bovine serum, 1.6 g/L sodium hydrogencarbonate, 0.584 g/L L-glutamine, and 0.08 g/L kanamycin sulfate at 37° C. in a 5% CO2 gas phase. After one day, the broth was recovered, the cell surfaces were washed with serum-free medium, and the culture was continued for another 3 days with the addition of medium containing 10%, 0% fetal bovine serum, or 2 mL of fresh medium comprising 13 μg/mL antithrombin III added to media containing no fetal bovine serum (0%). The viable cell count was assayed after 3 days of culture.

The values below come from patent publication US6858428B2, “Human and animal cell culture medium containing antithrombin III for suppressing cell death” (Agency of Industrial Science and Technology, priority 1999, dated 2005).

“Also recorded” adds a separate entry of the source.

B1: EGF: growth factor reported as survival factor (protein, UniProt P01133 23-1207, looked up)
Pro-epidermal growth factor: PQHWSCPEGTLAGNGNSTCVGPAPFLIFSHGNSIFRIDTEGTNYEQLVVDAGVSVIMDFHYNEKRIYWVDLERQLLQRVFLNGSRQERVCNIEKNVSGMAINWINEEVIWSNQQEGIITVTDMKGNNSHILLSALKYPANVAVDPVERFIFWSSEVAGSLYRADLDGVGVKALLETSEKITAVSLDVLDKRLFWIQYNREGSNSLICSCDYDGGSVHISKHPTQHNLFAMSLFGDRIFYSTWKMKTIWIANKHTGKDMVRINLHSSFVPLGELKVVHPLAQPKAEDDTWEPEQKLCKLRKGNCSSTVCGQDLQSHLCMCAEGYALSRDRKYCEDVNECAFWNHGCTLGCKNTPGSYYCTCPVGFVLLPDGKRCHQLVSCPRNVSECSHDCVLTSEGPLCFCPEGSVLERDGKTCSGCSSPDNGGCSQLCVPLSPVSWECDCFPGYDLQLDEKSCAASGPQPFLLFANSQDIRHMHFDGTDYGTLLSQQMGMVYALDHDPVENKIYFAHTALKWIERANMDGSQRERLIEEGVDVPEGLAVDWIGRRFYWTDRGKSLIGRSDLNGKRSKIITKENISQPRGIAVHPMAKRLFWTDTGINPRIESSSLQGLGRLVIASSDLIWPSGITIDFLTDKLYWCDAKQSVIEMANLDGSKRRRLTQNDVGHPFAVAVFEDYVWFSDWAMPSVMRVNKRTGKDRVRLQGSMLKPSSLVVVHPLAKPGADPCLYQNGGCEHICKKRLGTAWCSCREGFMKASDGKTCLALDGHQLLAGGEVDLKNQVTPLDILSKTRVSEDNITESQHMLVAEIMVSDQDDCAPVGCSMYARCISEGEDATCQCLKGFAGDGKLCSDIDECEMGVPVCPPASSKCINTEGGYVCRCSEGYQGDGIHCLDIDECQLGEHSCGENASCTNTEGGYTCMCAGRLSEPGLICPDSTPPPHLREDDHHYSVRNSDSECPLSHDGYCLHDGVCMYIEALDKYACNCVVGYIGERCQYRDLKWWELRHAGHGQQQKVIVVAVCVVVLVMLLLLSLWGAHYYRTQKLLSKNPKNPYEESSRDVRSRRPADTEDGMSSCPQPWFVVIKEHQDLKNGGQPVAGEDGQAADGSMQPTSWRQEPQLCGMGTEQGCWIPVSSDKGSCPQVMERSFHMPSYGTQTLEGGVEKPHSLLSANPLWQQRALDPPHQMELTQ
modifications: Pro-epidermal growth factor
B1: the Survival rate in the assay on hepatoma cell line HepG2 (additive 50 ng/ml) is on record as 54.7%.

B2: Antithrombin III: Lyophilized antithrombin III purified from bovine serum (protein, UniProt P41361 33-465, looked up)
Antithrombin-III: HRSPVEDVCTAKPRDIPVNPMCIYRSSEKKATEGQGSEQKIPGATNRRVWELSKANSHFATAFYQHLADSKNNNDNIFLSPLSISTAFAMTKLGACNNTLKQLMEVFKFDTISEKTSDQIHFFFAKLNCRLYRKANKSSELVSANRLFGGKSITFNETYQDISEVVYGAKLQPLDFKGNAEQSRLTINQWISNKTEGRITDVIPPQAINEFTVLVLVNTIYFKGLWKSKFSPENTRKELFYKADGESCSVLMMYQESKFRYRRVAESTQVLELPFKGDDITMVLILPKLEKTLAKVEQELTPDMLQEWLDELTETLLVVHMPRFRIEDSFSVKEQLQDMGLEDLFSPEKSRLPGIVAEGRSDLYVSDAFHKAFLEVNEEGSEAAASTVISIAGRSLNSDRVTFKANRPILVLIREVALNTIIFMGRVANPCVD
Turning to B2, the Survival rate in the assay on hepatoma cell line HepG2 (additive 1 μg/ml) was found to be 68.6%; in the assay on hepatoma cell line HepG2 (additive 2.5 μg/ml), 68.0%; in the assay on hepatoma cell line HepG2 (additive 5 μg/ml), 74.1%; in the assay with hepatoma cell line HepG2 (additive 10 μg/ml), 88.5%; with hepatoma cell line HepG2 (additive 17.5 μg/ml), 93.3%; in the assay on hepatoma cell line HepG2 (additive 25 μg/ml) it was 94.0%. In addition, the Survival rate in the assay with osteoblast cell line ROS (DMEM without fetal bovine serum, additive 13 μg/ml) was determined as 85.5%. Besides, the “Effect in controlling cell death (in words)” value in the assay on hepatoma cell line HepG2 (additive 1 μg/mL) was “cell death was suppressed”; in the assay on hepatoma cell line HepG2 (additive 2.5 μg/mL (so in the source)) it was “virtually the same survival rate as a serum concentration of 5%”; in the assay on hepatoma cell line HepG2 (additive 25 μg/mL) it was “highly effective in controlling cell death”; in the assay on hepatoma cell line HepG2 (concentration not given) it was “virtually the same survival rate as that of the medium with a 5% serum concentration; also recorded: considerably effective in controlling cell death”; in the assay with osteoblast cell line ROS (serum-free medium, additive 13 μg/mL) it was “considerably effective in controlling cell death”.
